Laboratory results: publication doi:10.1101/786475 (bioRxiv, 2019)

What was measured:
Assay in all cases: peptide or protein array
[1] = molecular target: T1, Aip1p (spotted on the yeast ProtoArray) (S. cerevisiae, UniProt P46680 1-615)
T1 sequence (looked up): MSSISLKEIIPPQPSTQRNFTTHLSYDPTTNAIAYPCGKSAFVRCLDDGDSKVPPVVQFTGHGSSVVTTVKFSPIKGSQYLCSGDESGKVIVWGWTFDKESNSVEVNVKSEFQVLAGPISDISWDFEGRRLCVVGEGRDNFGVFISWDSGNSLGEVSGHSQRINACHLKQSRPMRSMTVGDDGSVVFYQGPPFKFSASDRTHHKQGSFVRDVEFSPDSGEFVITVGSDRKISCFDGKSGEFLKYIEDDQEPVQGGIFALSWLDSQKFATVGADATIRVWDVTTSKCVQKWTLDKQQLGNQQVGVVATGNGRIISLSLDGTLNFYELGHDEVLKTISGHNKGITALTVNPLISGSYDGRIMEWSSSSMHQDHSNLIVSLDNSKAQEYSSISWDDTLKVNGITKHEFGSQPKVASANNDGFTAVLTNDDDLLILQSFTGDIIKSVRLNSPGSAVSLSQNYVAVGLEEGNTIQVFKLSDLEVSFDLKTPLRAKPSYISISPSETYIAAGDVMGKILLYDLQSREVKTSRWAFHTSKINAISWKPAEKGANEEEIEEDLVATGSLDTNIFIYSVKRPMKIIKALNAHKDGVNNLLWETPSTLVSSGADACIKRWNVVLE

[2] = molecular target: T2, Gpp2p (spotted on the yeast ProtoArray) (S. cerevisiae, UniProt P40106 1-250)
T2 sequence (looked up): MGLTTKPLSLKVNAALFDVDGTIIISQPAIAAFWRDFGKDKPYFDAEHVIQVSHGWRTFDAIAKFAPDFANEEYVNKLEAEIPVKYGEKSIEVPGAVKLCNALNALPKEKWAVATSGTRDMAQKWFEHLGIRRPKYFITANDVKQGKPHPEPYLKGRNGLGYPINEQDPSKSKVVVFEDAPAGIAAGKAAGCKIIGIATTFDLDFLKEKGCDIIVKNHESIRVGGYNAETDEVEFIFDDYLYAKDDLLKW

[3] = molecular target: T3, Nap1p (spotted on the yeast ProtoArray) (S. cerevisiae, UniProt P25293 1-417)
T3 sequence (looked up): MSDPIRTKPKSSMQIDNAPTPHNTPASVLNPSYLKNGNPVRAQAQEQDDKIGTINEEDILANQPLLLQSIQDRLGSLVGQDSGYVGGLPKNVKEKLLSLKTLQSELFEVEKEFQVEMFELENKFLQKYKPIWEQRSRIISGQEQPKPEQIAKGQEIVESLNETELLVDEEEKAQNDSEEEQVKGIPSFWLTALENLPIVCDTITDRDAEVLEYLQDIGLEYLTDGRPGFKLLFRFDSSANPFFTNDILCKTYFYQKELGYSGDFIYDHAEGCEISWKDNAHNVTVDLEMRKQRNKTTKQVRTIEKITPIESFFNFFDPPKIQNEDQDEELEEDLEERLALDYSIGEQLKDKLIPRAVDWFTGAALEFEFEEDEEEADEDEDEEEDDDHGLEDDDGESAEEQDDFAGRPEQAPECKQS

[4] = molecular target: T4, Gln1p (spotted on the yeast ProtoArray) (S. cerevisiae, UniProt P32288 1-370)
T4 sequence (looked up): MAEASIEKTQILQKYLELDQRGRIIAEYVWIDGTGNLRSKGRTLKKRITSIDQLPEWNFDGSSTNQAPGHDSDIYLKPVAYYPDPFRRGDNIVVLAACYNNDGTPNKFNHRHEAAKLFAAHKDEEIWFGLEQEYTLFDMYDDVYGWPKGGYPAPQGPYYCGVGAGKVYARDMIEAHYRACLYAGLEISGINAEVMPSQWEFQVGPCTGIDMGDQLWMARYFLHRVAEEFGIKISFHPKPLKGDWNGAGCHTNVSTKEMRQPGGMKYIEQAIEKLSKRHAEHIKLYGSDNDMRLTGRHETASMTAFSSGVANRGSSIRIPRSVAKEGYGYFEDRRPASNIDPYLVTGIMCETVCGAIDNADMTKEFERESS

[5] = molecular target: Mal12p (spotted on the yeast ProtoArray) (S. cerevisiae, UniProt P53341 1-584)
Mal12p (spotted on the yeast ProtoArray), sequence (P53341 whole entry): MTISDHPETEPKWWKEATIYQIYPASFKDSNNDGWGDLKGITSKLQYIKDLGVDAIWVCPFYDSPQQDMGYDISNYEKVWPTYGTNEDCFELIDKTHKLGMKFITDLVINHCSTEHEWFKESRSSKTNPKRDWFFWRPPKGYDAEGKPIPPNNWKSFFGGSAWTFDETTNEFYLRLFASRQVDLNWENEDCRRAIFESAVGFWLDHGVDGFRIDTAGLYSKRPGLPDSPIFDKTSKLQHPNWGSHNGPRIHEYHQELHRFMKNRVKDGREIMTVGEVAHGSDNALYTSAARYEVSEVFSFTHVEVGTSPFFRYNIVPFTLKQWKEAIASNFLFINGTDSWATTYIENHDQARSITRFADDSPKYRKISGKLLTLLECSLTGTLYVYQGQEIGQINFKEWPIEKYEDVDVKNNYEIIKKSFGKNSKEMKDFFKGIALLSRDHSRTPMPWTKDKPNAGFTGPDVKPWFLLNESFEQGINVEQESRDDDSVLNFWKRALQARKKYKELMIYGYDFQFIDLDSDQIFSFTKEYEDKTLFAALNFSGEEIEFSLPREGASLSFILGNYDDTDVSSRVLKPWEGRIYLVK

[6] = molecular target: T5, Cia1p (spotted on the yeast ProtoArray) (S. cerevisiae, UniProt Q05583 1-330)
T5 sequence (looked up): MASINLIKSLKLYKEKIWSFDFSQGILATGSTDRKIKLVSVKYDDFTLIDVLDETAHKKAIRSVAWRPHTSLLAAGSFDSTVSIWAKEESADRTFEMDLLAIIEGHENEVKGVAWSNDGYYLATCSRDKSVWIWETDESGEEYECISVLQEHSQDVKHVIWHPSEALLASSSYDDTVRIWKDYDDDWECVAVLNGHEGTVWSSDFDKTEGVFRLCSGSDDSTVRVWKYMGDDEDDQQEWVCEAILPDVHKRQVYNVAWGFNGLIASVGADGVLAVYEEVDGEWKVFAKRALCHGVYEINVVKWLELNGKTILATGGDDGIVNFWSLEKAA

Measured: binding result

B1: purified and biotinylated cytoplasmic domain of the Msb2p protein (HIS-Msb2p^CYT) (domain or fragment, S. cerevisiae, UniProt P32334 1207-1306, looked up)
chain: AFKYIIRRRIQSQEIIKNPEISSISSSEFGGEKNYNNEKRMSVQESITQSMRIQNWMDDSYYGHGLTNNDSTPTRHNTSSSIPKISRPIASQNSLGWNEV
modifications: biotinylated in vitro (sites not given)
binds: all assays above
